We go through one molecule from patent CN112979797A (CHINESE ACAD INSPECTION & QUARANTINE, dated 2021).

This assay concerns the target T1, 原核表达的带HIS标签的重组蛋白SBV-N (SBV, UniProt H2AM13 1-233).
T1 sequence: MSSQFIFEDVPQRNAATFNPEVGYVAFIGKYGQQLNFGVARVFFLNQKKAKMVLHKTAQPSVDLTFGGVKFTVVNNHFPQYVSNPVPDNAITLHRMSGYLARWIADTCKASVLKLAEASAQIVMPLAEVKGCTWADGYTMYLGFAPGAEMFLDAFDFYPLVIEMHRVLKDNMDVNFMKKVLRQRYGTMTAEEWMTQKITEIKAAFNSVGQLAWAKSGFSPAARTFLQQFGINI
Kind of assay: Western blot, hybridoma supernatant on His-tagged recombinant protein. In general terms: Immunoblotting shows a protein as a band on a membrane.

B1: 单克隆抗体2D3 (antibody, V domains shown)
VH: EVQLQQSKTELVRSGASVKLSCTASGFNIKDYFIHWVKQRPEQGLEWIGWIDPENGDTEYAPKFQGKATMTADTSSNTAYLQLGSLTSEDTAVYYCYSRGWHLENLEYWGQGTTLTVSS
VL: DVLMTQTPLSLPVSLGDQASISCRSSQSIVHSNGNTYLEWYLQKPGQSPKLLIYKVSNRFSGVPDRFSGSGSGTDFTLKISRVEAEDLGVYYCFQGSHVPRTFGGGTKLEIKR
notes: also called 2D3单抗; 2D3抗体
On to B1, for which the binding result is “no binding”.
